Assay results reported in patent publication US20130224829A1, “NOVEL LIPOXYGENASE DERIVED FROM LEMNA PAUCICOSTATA” (priority 2010, published 2013).

B1: 441LpLOX2: Position 9 product specific lipoxygenase 2 obtained from Lemna paucicostata 441 strain (SEQ ID NO: 6) (protein, listed as Lemna paucicostata)
chain: MADFLQKVTNNLLHKAAKISGTVVLVKSNVIGFNDFGDSFLDGLHELLGSGITFQLVSATVGDPNNGNKGKLGKPALLEKWITTGTFLVAGDSGFKVNFEWDEQLGIPGAVIVKNNHHGEFFLKSFTLDGVPGPRSRIHFDCNSWVYPYSTYNYDRVFFANDTYLPGETPEPLKAYRAAELVNLRGDGVTRELKEGDRIYAYDYYNDLGDPDSGKELARPILGGSKEYPYPRRARTGRKLTKTDPKSEQRLPLVFSLNVYVPRDERFGHLKMSDFLAYSLKALAQGLVPALDAAADITPFEFDTFQDVLNLYEGGINLPTTPASENFKKQIPFPLVKELFRSDGENVFRLPTPSVIKADKFAWRTDEEFGREMLAGVNPVCIRLLTKFPPVSSLDPSIYGNQNSTMIADQLEKNMNGLSVEEALKQKKLFILDHHDSLMPYLERINTFNKIYASRTVLLLRDDGTLKPLAIELSLPIKGEKGAVSKVYTPAEHGVEGAVWQLAKAYVAVNDSGVHQLISHWLNTHATIEPFSIALNRQLSVVHPIYKLLHPHFRDTMNINAFARQILINAGGILEMTVFPGKYAMEMSSVVYKGWKLTDQALPVDLLNRGVAEKDPSSGELRLLIEDYPYAVDGLDVWNAIEEWVKEYCAIYYPSDKTLLDDTELQAWWKEVREVGHGDKKDETWWPAMETVAELTQTCCTIIWVASALHAAVNFAQYPYAGYLPNRPTISRRFMPEPGTPEYEELETDPDRAFLKTITSQLQTLIGVSLIEILSRHSSDEIYLGQRVSAEWTSDAKALAAFKAFGEKLITIENKIIQMNVDSSLKNRNGPVKVPYTFLYPNTTDYTRVGGLTGRGIPNSISI
B2: SHLpLOX: Position 9 product specific lipoxygenase obtained from Lemna paucicostata SH strain (SEQ ID NO: 2), expressed in Escherichia coli (protein, listed as Lemna paucicostata)
chain: MAGFLQKVTDNLLHKAAKISGTVVLVKSNVVGFNDFADSFLDGLHELLGSGITFQLVSATVGDPKNGNKGKLGKPALLEKWITTGTFLAAGDSGFKVNFEWDEQLGVPGAVIVKNNHHGEFFLKSLTLDGAPGPRSRIHFDCNSWVYPYSTYNYDRVFFANDTYLPGEMPEPLKAYRAAELVNLRGDGVTRELKEGDRIYAYDLYNDLGDPDSGKELARPILGGSEEYPYPRRARTGRKLTKTDPKSEQRLPLVFSLNVYVPRDERFGHLKMSDFLAYSLKALAQGLVPALDAATDITPFEFDTFQDVLNLYEGGINLPTTPALENFKKQIPFPLVKELFRSDGENLFRLPTPSVIKADKFAWRTDEEFGREMLAGVNPVCIRLLKKFPPVSSLDPSIYRNQNSTMIADQLEKNMNGLSVEEALKQKKLFILDHHDSLMPYLERINTFNKIYASRTVLLLQDDGTLKPLAIELSLPVKGEKGAVSKVYTPAEHGVEGAVWQLAKAYVAVNDSGVHQLISHWLNTHATIEPFSIALNRQLSVVHPIYKLLHPHFRDTMNINAFARQILINAGGILEMTVFPGKYAMEMSSVVYKGWKLTDQALPVDLLNRGVAEKDPSSGELRLLIEDYPYAVDGLDVWNAIEEWVKEYCAIYYPSDKTLQDDTEVQAWWKEVREVGHGDKKDETWWPAMETVAELTQTCSTIIWVASALHAAVNFAQYPYAGYLPNRPTISRRFMPEPGTPEYEELETDPDRAFLKTITSQLQTLIGVSLIEILSRHSSDEIYLGQRVSAEWTSDAKALAAFKAFGEKLITIENKIIEMNVDSSLKNRNGPVKVPYTFLYPNTTDYTRVGGLTGRGIPNSISI
B3: 441LpLOX1: Position 9 product specific lipoxygenase 1 obtained from Lemna paucicostata 441 strain (SEQ ID NO: 4) (protein, listed as Lemna paucicostata)
chain: MDAFIHKVTDVFTHKEENKVAKISGTVVIVKSNVVGFNDFVDSFLDGLHELVGSGITFQLISATVGDPKNGNKGKLGKPAQLERWITTGTFLAAGDSGFKLTFEWDEQLGFPGAVIVKNNHHGEFFLKSFTLDGVPGKKTRIHFDCNSWVYPYSTYNYDRVFFANDTFLPGNMPEPLKAYRAAELANLRGDGVAPRELKEGDRIYAYDVYNDLGDPDSGEELVRPILGGSKEYPYPRRARTGRKMTKTDPKSETRLPLLFSLNVYVPRDERFGHLKMSDFLGYSLKALAQGLVPVLNEAADLTPFEFDTFQDVLNLYEGGIDLPDSPALENVRKQIPFALIKELFRSDGENLFRLPTPAVIKADKFAWRTDEEFGREMLAGVNPVCIRLLTKFPPVSSLDPNTYGDHNSTMTADQLEKNMNGLSVEEALNKKKLFILDHHDSLMPYLERINTFNKIYASRTVLLLQDDGTLKPLAIELSLPIKGQKGAVSKVYTPAEHGVEAAVWQLAKAFAAVNDSGVHQLISHWLNTHATIEPFAIALNRQLSVVHPIYKLLHPHFRDTMNINAFARQILINAGGILEMTVFPGKYALEMSSVVYKGWKLIDHALPVDLLNRGVAENDPSAPGKLRLLIEDYPYAVDGLAVWSAIEIWVKEYCAIYYPSDKILQDDTELQAWWKEVREVGHGDKKDETWWPTMKTVAELTQTCCTIIWVASALHAAVNFGQYPYAGYLPNRPTVSRRFMPEPGTPEYEELKTDPDRAFLKTITSQLQTTIGVSLIEILSRHSSDEVYLGQRISAEWTTDEKALAAFKAFGERLITIENQIIEMNHEPKLKNRNGPVKLPYTLLYPNTSDYTRVGGLTGRGIPNSVSI

Assay: Lipoxygenase activity of enzyme solutions on α-linolenic acid, reverse-phase HPLC of linolenic acid hydroperoxide
Type: biochemical
Details: for position 9 product specific lypoxygenase activity (peak of linolenic acid-9-hydroxyperoxide, 21.1 min): α-linolenic acid substrate, pH7.0, 30 minutes reaction, E. coli-expressed enzyme solution; for activity of position 9-product specific lypoxygenase compared with r9-LOX1 (amount of lynolenic acid-9-hydroperoxide): HPLC comparison, FIG. 6
Experimental: The activity of lypoxygenase in the enzyme solutions of SHLpLOX, 441LpLOX1, 441LpLOX2 and r9-LpLOX1 which was used as a control, was determined. 25 μl of 5 mM α-lynolenic acid solution (including 0.05% Tween80), 10 μl of 0.2M phosphate Na Buffer (pH7.0), 5 μl of distilled water were added to 1.5 ml of tube, and then 10 μl of the enzyme solution was added to the tube, and allowed to react for 30 minutes. After the reaction was over, reactant was subjected to HPLC (reverse phase; Column: Capsule pack C-18 UG120 (4.6×250 mm, Shiseido), Column temperature: 40° C., Mobile phase: 50% acetnitril (0.02%TFA), Flow rate 1 ml/min, Detection: 210 nm) so as to detect the site specificity of produced lynolenic acid hydroperoxide and the production amount.
The amount of lynolenic acid-9-hydroperoxide form was compared based on the results of HPLC.

| Molecule | position 9 product specific lypoxygenase activity (peak of linolenic acid-9-hydroxyperoxide, 21.1 min) | activity of position 9-product specific lypoxygenase compared with r9-LOX1 (amount of lynolenic acid-9-hydroperoxide) |
| --- | --- | --- |
| B1 | have position 9 product specific lypoxygenase activity | – |
| B2 | have position 9 product specific lypoxygenase activity | far higher activity |
| B3 | have position 9 product specific lypoxygenase activity | far higher activity |
